Measurements reported in publication PMC11079029, “Intramolecular autoinhibition regulates the selectivity of PRPF40A tandem WW domains for proline-rich motifs” (Nature Communications, 2024).

Assays:
Assay in all cases: ITC; GB1-peptide or GB1-SF1 construct in the cell, PRPF40A WW12 in the syringe (as shown in Supplementary Figures 7 and 16A); 25 °C, 20 mM sodium phosphate pH 6.5, 100 mM NaCl; one-site binding model; at least duplicates; affinities apparent
Conditions in all cases: both partners purified
[1] = target: T1, GB1-SF1 Pro B (residues 468-539) (UniProt Q15637 468-539)
T1 construct: splicing factor 1 (SF1), residues 468-539 of the proline-rich C-terminal region; His6-GB1-TEV site cassette of the pET24 vector, not cleaved; source: E. coli BL21(DE3), purified (Ni-NTA, SEC); not shown: GB1, N-terminal, kept
T1 sequence (looked up): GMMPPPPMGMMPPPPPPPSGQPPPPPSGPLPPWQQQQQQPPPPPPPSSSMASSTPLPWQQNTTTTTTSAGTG

[2] = target: T2, GB1-SF1 Pro C (residues 539-594) (UniProt Q15637 539-594)
T2 construct: splicing factor 1 (SF1), residues 539-594 of the proline-rich C-terminal region (holds the WWbs motif 575-590); His6-GB1-TEV site cassette of the pET24 vector, not cleaved; source: E. coli BL21(DE3), purified (Ni-NTA, SEC); not shown: GB1, N-terminal, kept
T2 sequence (looked up): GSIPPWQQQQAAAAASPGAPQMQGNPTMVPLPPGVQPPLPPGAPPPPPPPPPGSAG

[3] = target: T3, GB1-polyproline peptide P16
T3 chain: PPPPPPPPPPPPPPPP

[4] = target: T4, GB1-polyproline peptide P10
T4 chain: PPPPPPPPPP

[5] = target: T5, GB1-polyproline peptide P25
T5 chain: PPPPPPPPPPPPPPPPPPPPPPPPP

[6] = target: T6, GB1-polyproline peptide P22
T6 chain: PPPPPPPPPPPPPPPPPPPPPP

[7] = target: T7, GB1-polyproline peptide P29
T7 chain: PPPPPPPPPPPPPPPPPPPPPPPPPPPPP

[8] = target: T8, GB1-SF1 16-mer peptide 565-580
T8 chain: TMVPLPPGVQPPLPPG

[9] = target: T9, GB1-SF1 Pro D (residues 594-639) (UniProt Q15637 594-639)
T9 construct: splicing factor 1 (SF1), residues 594-639 of the proline-rich C-terminal region; His6-GB1-TEV site cassette of the pET24 vector, not cleaved; source: E. coli BL21(DE3), purified (Ni-NTA, SEC); not shown: GB1, N-terminal, kept
T9 chain (looked up): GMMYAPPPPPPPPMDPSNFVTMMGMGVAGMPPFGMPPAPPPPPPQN

[10] = target: T10, GB1-polyproline peptide P19
T10 chain: PPPPPPPPPPPPPPPPPPP

[11] = target: T11, GB1-polyproline peptide P13
T11 chain: PPPPPPPPPPPPP

[12] = target: T12, GB1-SF1 Pro A (residues 410-468) (UniProt Q15637 410-468)
T12 construct: splicing factor 1 (SF1), residues 410-468 of the proline-rich C-terminal region; His6-GB1-TEV site cassette of the pET24 vector, not cleaved; source: E. coli BL21(DE3), purified (Ni-NTA, SEC); not shown: GB1, N-terminal, kept
T12 sequence (looked up): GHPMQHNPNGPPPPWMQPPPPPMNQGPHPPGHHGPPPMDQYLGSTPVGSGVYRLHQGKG

B1: PRPF40A WW12 (tandem WW domains, residues 141-236) (domain or fragment, human, UniProt O75400 141-236, looked up)
chain: GAKSMWTEHKSPDGRTYYYNTETKQSTWEKPDDLKTPAEQLLSKCPWKEYKSDSGKPYYYNSQTKESRWAKPKELEDLEGYQNTIVAGSLITKSNL
notes: A few vector residues probably remain at the N-terminus after TEV cleavage (pETM11, NcoI site); 15N-labelled in the NMR experiments; also called PRPF40A WW tandem; WW12 wt; source: E. coli BL21(DE3), purified (Ni-NTA, TEV digestion, reverse Ni-NTA, SEC); not shown: His6, N-terminal, cleaved
[1]
  stoichiometry N: 1.15 ± 0.15 sites
[2]
  stoichiometry N: 0.88 ± 0.01 sites
[3]
  stoichiometry N: 0.88 ± 0.08 sites
[4]
  stoichiometry N: 0.89 ± 0.11 sites
[5]
  stoichiometry N: 2.3 ± 0.09 sites
[6]
  stoichiometry N: 1.39 ± 0.03 sites
[7]
  stoichiometry N: 2.47 ± 0.09 sites
[8]
  stoichiometry N: 1.06 ± 0.11 sites
[9]
  stoichiometry N: 0.87 ± 0.02 sites
[10]
  stoichiometry N: 1.1 ± 0.04 sites
[11]
  stoichiometry N: 0.78 ± 0.07 sites
[12]
  stoichiometry N: 0.99 ± 0.17 sites
